Data from patent US20230285635.

Experiments:
CD31 (PECAM-1) [1] = target: CD31 (PECAM-1) (UniProt P16284); assay: flow; settings: positions printed as 6 (n in SEQ ID NO: 1) are modified bases, identity not stated in the supplied text; at 600 and 800 nM aptamer, saturated at 600 nM; CD31-negative HepG2 and MSCs only about 2% bound
CD31 (PECAM-1) [2] = target: CD31 (PECAM-1) (UniProt P16284); assay: cell_activity; settings: positions printed as 6 (n in SEQ ID NO: 1) are modified bases, identity not stated in the supplied text; aptamer-coated microfluidic device on ECM, shear stress 20 dynes/cm2; antibody coating 51%; more than 80% attached at 10 dynes/cm2

## TCAGCCGCCAGCCAGTTCGTAGAGGAGGTACGTAATGTCTGGGTATACCCCGATAATTGACCAGAGCACCACAGAG [anti-CD31 aptamer]
CD31 (PECAM-1) [1]
  binding signal (% of HUVECs bound): 99
CD31 (PECAM-1) [2]
  activity (% HUVECs attached): 61.5
